Data: article PMC11832932

Target: HSC70 (UniProt P11142)
Assay: Flag IP, blot for HA-HSC70
Details: reference: wild type, H2O2-treated cells; sites S371

Substance: PHGDH (from UniProt O43175) S371A, H2O2-treated cells
- binding against the reference: weaker
